In general, Kd refers to the free concentration of one partner at which half of the binding sites on the other are occupied at equilibrium, for simple one-to-one binding. Read a low Kd as tighter binding.

For one test, the target named is HLA-B*27:20. The experiment in a line: IEDB peptide-MHC binding, purified MHC/competitive/fluorescence; filed as Kd, often an IC50 or EC50 that approximates it; ≥ and ≤ were set here for values at or beyond the usual limits of such assays. The note with it: source organism: Escherichia coli 536.
The target of a further test is HLA-B*15:01. The description is as above.
The target in test [1] is HLA-B*40:01. The test is described as above. The following applies: source organism: Escherichia coli 536.
The next test has as its target HLA-B*45:06. The test is described as above. The following applies: source organism: Escherichia coli 536.
The target of another test is HLA-B*40:13. The test is described as above. The note with it: source organism: Escherichia coli 536.
For another test, the target named is HLA-B*83:01. The test is described as above. The following applies: source organism: Escherichia coli 536.
In another test the target is HLA-B*39:01. The description is as above. The note with it: source organism: Escherichia coli 536.
The target in the next test is HLA-B*15:42. The description is as above. The note with it: source organism: Escherichia coli 536.
The target of the next test is HLA-A*32:07. Described as above. The note with it: source organism: Escherichia coli 536.
Test [2] concerns the target HLA-B*27:05. The test is described as above. The following applies: source organism: Mycobacterium tuberculosis variant bovis BCG str. Pasteur 1173P2.
Another test has as its target HLA-A*02:01. The description is as above.
In test [3] the target is HLA-A*69:01. The description is as above. The note with it: source organism: Mycobacterium tuberculosis variant bovis BCG str. Pasteur 1173P2.
For the next test, the target named is HLA-A*02:03. Described as above. The following applies: source organism: Mycobacterium tuberculosis variant bovis BCG str. Pasteur 1173P2.
Test [4] has as its target HLA-A*31:01. The test is described as above. The note with it: source organism: Mycobacterium tuberculosis variant bovis BCG str. Pasteur 1173P2.
In another test the target is HLA-A*11:01. Briefly: IEDB peptide-MHC binding, purified MHC/direct/fluorescence; filed as Kd, often an IC50 or EC50 that approximates it; ≥ and ≤ were set here for values at or beyond the usual limits of such assays.
The target of a further test is HLA-B*48:01. The test is described as above.
For a further test, the target named is HLA-B*15:17. The description is as above.
Test [5] addresses HLA-B*27:05. The test is described as above.
The target of a further test is HLA-B*18:01. The description is as above.
Another test concerns the target HLA-B*46:01. Described as above. The following applies: source organism: Mycobacterium tuberculosis.
In another test the target is HLA-A*03:01. Described as above.
Test [6] deals with HLA-B*40:01. The test is described as above.
A further test concerns the target HLA-B*58:01. The description is as above.
A further test deals with HLA-B*38:01. Described as above.
Another test concerns the target HLA-A*01:01. The description is as above.
The next test has as its target HLA-B*57:01. The description is as above.
The next test deals with HLA-B*51:01. The test is described as above.
The target of the next test is HLA-B*15:09. Briefly: IEDB peptide-MHC binding, purified MHC/competitive/fluorescence; filed as Kd, often an IC50 or EC50 that approximates it; ≥ and ≤ were set here for values at or beyond the usual limits of such assays. The note with it: source organism: Ectromelia virus.
A further test addresses HLA-B*08:01. Described as above. The following applies: source organism: Ectromelia virus.
Test [7] deals with HLA-A*69:01. Briefly: IEDB peptide-MHC binding, purified MHC/direct/fluorescence; filed as Kd, often an IC50 or EC50 that approximates it; ≥ and ≤ were set here for values at or beyond the usual limits of such assays. The following applies: source organism: Camelpox virus CMS.
Test [8] concerns the target HLA-A*31:01. The test is described as above. The note with it: source organism: Camelpox virus CMS.
The target of a further test is HLA-A*26:01. The test is described as above. The following applies: source organism: Variola virus.
The target in a further test is HLA-B*07:02. Described as above. The following applies: source organism: Camelpox virus CMS.
Setting [9] is: source organism: Mycobacterium tuberculosis variant bovis BCG str. Pasteur 1173P2.
Setting [10] is: source organism: Mycobacterium tuberculosis.
Where [11] appears, read: source organism: Ectromelia virus.
[12] abbreviates: source organism: Camelpox virus CMS.

As for RQRAVRMVL, the dissociation constant Kd with HLA-B*27:20 was 0.0016 µM; with HLA-B*15:01 (source organism: Escherichia coli 536), 0.354 µM; with HLA-B*40:01 [1] it was 1.87 µM; with HLA-B*45:06, ≥ 5 µM; with HLA-B*40:13, 0.0514 µM; with HLA-B*83:01, ≥ 5 µM. The equilibrium dissociation constant (Kd) is ≥ 5 µM with HLA-B*39:01, 5.18 µM in the test with HLA-B*15:42 and 0.0307 µM in the test with HLA-A*32:07.

Sequence GRAVSSATF displayed a Kd with HLA-B*27:05 [2] of 0.141 µM.

With RVEESRARL, the dissociation constant (Kd) in the test with HLA-A*02:01 (setting [9]), with HLA-A*69:01 [3], with HLA-B*15:01 (setting [9]), with HLA-A*02:03, with HLA-A*31:01 [4] and with HLA-A*11:01 (setting [10]) was ≥ 20 µM throughout. Further, the Kd in the test with HLA-B*48:01 (setting [10]) is ≥ 20 µM; with HLA-B*15:17 (setting [10]) it was 0.0194 µM; with HLA-B*27:05 [5] (setting [10]), ≥ 20 µM; in the test with HLA-B*18:01 (setting [10]) it was ≥ 20 µM; with HLA-B*46:01, ≥ 20 µM; with HLA-A*03:01 (setting [10]), ≥ 20 µM. The Kd is ≥ 20 µM in the test with HLA-B*40:01 [6] (setting [10]); ≥ 20 µM with HLA-B*58:01 (setting [10]); ≥ 20 µM in the test with HLA-B*38:01 (source organism: Mycobacterium tuberculosis str. Haarlem); ≥ 20 µM with HLA-A*01:01 (setting [10]); 2.5 µM in the test with HLA-B*57:01 (setting [10]); ≥ 20 µM in the test with HLA-B*51:01 (setting [10]).

Consider VIARTHTAL, for which the Kd is ≥ 20 µM with HLA-B*15:09; ≥ 20 µM in the test with HLA-A*02:01 (setting [11]); 0.785 µM in the test with HLA-B*15:01 (setting [11]); 0.0518 µM with HLA-B*08:01; ≥ 20 µM with HLA-A*11:01 (setting [12]); ≥ 20 µM with HLA-B*48:01 (setting [12]). Besides, the Kd with HLA-B*15:17 (setting [12]), with HLA-A*69:01 [7], in the test with HLA-B*27:05 [5] (setting [12]), with HLA-A*31:01 [8], in the test with HLA-B*18:01 (setting [12]) and with HLA-A*03:01 (setting [12]) was ≥ 20 µM each time. For the same sequence, the Kd with HLA-B*40:01 [6] (setting [12]) is ≥ 20 µM; with HLA-B*58:01 (setting [12]), ≥ 20 µM; with HLA-A*26:01, ≥ 20 µM; in the test with HLA-B*38:01 (source organism: Variola virus) it was ≥ 20 µM; with HLA-A*01:01 (setting [12]) it was ≥ 20 µM; in the test with HLA-B*07:02, 0.0583 µM. Besides, the dissociation constant (Kd) with HLA-B*57:01 (setting [12]) and with HLA-B*51:01 (setting [12]) was ≥ 20 µM throughout.

For the origin of these results see the Immune Epitope Database (IEDB).
